# Data published in patent US12337037B2, “Taxol conjugate compounds, pharmaceutical compositions comprising the same, and methods for their use” (N1 Life, Inc, priority 2021, dated 2025).
# Experiments:
# Stability in plasma, dog = assay type: in vitro ADME; conditions: for half-life: 37° C., read-out: Mean T1/2 (converted)
# Experimental: (§1) Working solutions of test compounds were prepared in PBS (pH 7.4). Propantheline was used as positive control for human, monkey, dog and mouse plasma in the assay. Mevinolin was used as positive control for rat plasma in this assay. 1 mM propantheline working solution was prepared in acetonitrile. 1 mM mevinolin working solution was prepared in DMSO. Incubation buffer of 475 μL plasma for each cell was added into the incubation plate and pre-warmed at 37° C. for 15 minutes. After the pre-incubation, 25 μL of working solution (test compounds or control compounds) was spiked to plasma. For Compound 5 and Compound 3, the final concentration of organic concentration was 0%. For Taxol, the final concentration of organic solvents was 0.25%. The assay was performed in duplicate. The reaction samples were incubated at 37° C. Aliquots of 50 μL were taken from the reaction samples at 0, 0.25, 0.5, 1, 2, 4, 6, 8 and 24 hours. The reactions were stopped by the addition of 450 μL of ice-cold quench solution (methanol with 2% FA containing internal standards). All samples were vortexed for 10 minutes, following by centrifugation at 3,220 g for 30 minutes to precipitate proteins. 100 μL of the supernatant from each well was transferred to a new plate. The supernatant was diluted with ultrapure water. Samples were analyzed by LC-MS/MS. All calculations were carried out using Microsoft Excel. Peak area ratios were determined from extracted ion chromatograms. Percent compounds remaining at each time point were calculated by the following equation: Remaining Percentaget min(%)=Peak Area Ratiot min/Peak Area Ratio0 min×100
# (§2) Peak Area Ratiot min is peak area ratio of control and test compounds at t min; and
# (§3) Peak Area Ratio0 min is peak area ratio of control and test compounds at zero time point.
# (§4) The slope value, k, was determined by linear regression of the natural logarithm of the remaining percentage of the parent drug vs. incubation time curve.
# (§5) The in vitro half-life (in vitro t1/2) was determined from the slope value: in vitro t1/2=(0.693/k)
# [1] = Stability in plasma, mouse; assay type: in vitro ADME; conditions: for half-life: 37° C., read-out: Mean T1/2 (converted)
# Experimental: as §1, §2, §3, §4, §5
# [2] = In-life pharmacokinetics, single IP dose; conditions: CD-1 mice
# Experimental: General Procedure: A single-dose study was conducted in CD-1 mice. Groups (12 animals in each group) were administered an intraperitoneal (IP) dose of either Taxol (10 mg/kg), Compound 3 (38.4 mg/kg), or Compound 5 (38.4 mg/kg). Serial or terminal plasma samples (n=3 per timepoint) were collected from study animals at pre-determined times post-dose. Each mouse was serial bled 2 times (orbital bleeds) and one terminal bleed. The samples were collected in pre-chilled tubes for all steps. Upon completion of the in-life phase, the samples were analyzed using LC-MS/MS.
# Assay Procedures: For analysis of analytes in mouse plasma, a 50.0 μL aliquot of each study sample was extracted with protein precipitation using 200 μl of 5% formic acid in methanol. Internal standards were added by adding 25.0 μL methanol containing 250 ng/mL tolbutamide and 1000 ng/mL Taxol-d5.
# For Compound 5 and Compound 3 analysis, following centrifugation at 4000 rpm for 10 minutes, 150 μL of the supernatant was transferred to a clean 96 well collection plate for LC-MS/MS analysis.
# For Taxol analysis, following centrifugation at 4000 rpm for 10 minutes, 75.0 μL of the supernatant was transferred into a clean 96 well collection plate containing 75.0 μL of deionized water. The plate was then capped and vortexed at 1650 rpm for 3 minutes prior to LC-MS/MS analysis.
# Preparation of Standards and Quality Controls: Calibration standards of Compound 3 in mouse plasma were prepared on wet ice in blank mouse plasma at concentrations of 5.00, 10.0, 50.0, 100, 200, 250, 450, and 500 ng/mL. The low quality control ([LQC], 15.0 ng/mL), medium quality control ([MQC], 120 ng/mL) and high quality control ([HQC], 400 ng/mL) were prepared in blank mouse plasma.
# Calibration standards of Taxol in mouse plasma were prepared on wet ice in blank mouse plasma at concentrations of 2.50, 5.00, 25.0, 125, 625, 1250, 2250, and 2500 ng/mL. The LQC, (7.50 ng/mL), MQC (120 ng/mL), and HQC (2000 ng/mL) were prepared in blank mouse plasma.
# Sample Analyses: Mouse plasma samples were received from the in-life and were stored in a freezer set to −80° C.
# Study samples were analyzed in 2 batches. At a minimum, each batch included the following: one set of calibration standards, a matrix blank (blank mouse plasma), a control-zero sample (blank mouse plasma with internal standard), and duplicate QC samples at 3 concentration levels (low, medium, and high) in addition to the study samples. Within each batch, the study samples were bracketed by calibration standards or QC samples.
# Data Acquisition and Processing: The LC-MS/MS data acquisition was performed on an Agilent 1290 Infinity II HPLC system coupled with an AB SCIEX API 6500+ mass spectrometer. Chromatograms were integrated using Analyst 1.6.3 software. A weighted (1/x2, x=concentration) linear regression was used to generate the calibration curves and the regression was performed using Analyst 1.6.3 software. The concentration of the analyte in the samples was calculated using the peak area ratios of analyte to internal standard based on the calibration curve.
# [3] = analyte: Taxol, IP single dose, Cmpd 3 / Cmpd 5 38.4 mg/kg, Taxol 10 mg/kg
# [4] = analyte: the administered conjugate, 38.4 mg/kg IP single dose
smiles,measurement,setting,value
"CC(=O)N[C@@H](CSSCCCC(=O)OC(C(=O)O[C@H]1C[C@@]2(O)[C@@H](OC(=O)c3ccccc3)[C@@H]3[C@]4(OC(C)=O)CO[C@@H]4C[C@H](O)[C@@]3(C)C(=O)[C@H](OC(C)=O)C(=C1C)C2(C)C)[C@@H](NC(=O)c1ccccc1)c1ccccc1)C(=O)N[C@H](CCCNC(=N)N)C(=O)N[C@H](CCCNC(=N)N)C(=O)N[C@H](CCCNC(=N)N)C(=O)N[C@H](CCCNC(=N)N)C(=O)N[C@H](CCCNC(=N)N)C(=O)N[C@H](CCCNC(=N)N)C(=O)N[C@H](CCCNC(=N)N)C(=O)N[C@H](CCCNC(=N)N)C(N)=O (stereo partly drawn) [Compound 3, Ac-L-Cysteine (paclitaxel-4-mercaptobutanoate)-D-Arginine8-NH2]","Percent Increase of T1/2, Compound 3 over Compound 5","Stability in plasma, dog",1%
same,half-life,"Stability in plasma, dog",2.79 h
same,"Percent Increase of T1/2, Compound 3 over Compound 5",[1],34.18%
same,half-life,[1],1.06 h
same,Taxol/Cmpd AUC Ratio,[2]; 38.4 mg/kg IP single dose,81.84
same,"AUC ratio Taxol/compound, times higher than AUC ratio of Taxol/Compound 5",[2]; 38.4 mg/kg IP,20 times
same,"T1/2 of released Taxol, longer than that of Taxol released from Compound 5",[2]; 38.4 mg/kg IP,33.3%
same,AUMC0-t (h*h*nmol/L),[2]; [3],"72,372.302 h*h*nmol/L"
same,AUMC0-t (h*h*nmol/L),[2]; [4],26.304 h*h*nmol/L
"CC(=O)N[C@H](CSSCCCC(=O)O[C@@H](C(=O)O[C@H]1C[C@@]2(O)[C@@H](OC(=O)c3ccccc3)[C@@H]3[C@]4(OC(C)=O)CO[C@@H]4C[C@H](O)[C@@]3(C)C(=O)[C@H](OC(C)=O)C(=C1C)C2(C)C)[C@@H](NC(=O)c1ccccc1)c1ccccc1)C(=O)N[C@H](CCCNC(=N)N)C(=O)N[C@H](CCCNC(=N)N)C(=O)N[C@H](CCCNC(=N)N)C(=O)N[C@H](CCCNC(=N)N)C(=O)N[C@H](CCCNC(=N)N)C(=O)N[C@H](CCCNC(=N)N)C(=O)N[C@H](CCCNC(=N)N)C(=O)N[C@H](CCCNC(=N)N)C(N)=O [Compound 5, Ac-D-Cysteine (paclitaxel-4-mercaptobutanoate)-D-Arginine8-NH2]",half-life,"Stability in plasma, dog",2.76 h
same,half-life,[1],0.79 h
same,Taxol/Cmpd AUC Ratio,[2]; 38.4 mg/kg IP single dose,3.942
same,"Cmax of parent compound, fold higher than that of Compound 3",[2]; 38.4 mg/kg IP,over 100 fold
same,AUMC0-t (h*h*nmol/L),[2]; [3],3274.99 h*h*nmol/L
same,AUMC0-t (h*h*nmol/L),[2]; [4],830.67 h*h*nmol/L
